According to patent US20180002439A1 (INSTITUT NATIONAL DE LA SANTE ET DE LA RECHERCHE MEDICALE …, published 2018):
Blank lines part the entries; values can stand above or below the molecule they belong to.

Tests used:
[1] = molecular target: mesothelin as expressed on the plasma membrane of human cells (HeLa, OVCAR-3, SK-OV-3, A1847) (human) (UniProt Q13421); assay: flow cytometry on Hela cells, chemically biotinylated mAb K1, detection with PE streptavidin [continued) C]
[2] = molecular target: mesothelin as expressed on the plasma membrane of human cells (HeLa, OVCAR-3, SK-OV-3, A1847) (human) (UniProt Q13421); assay: flow cytometry on HeLa cells, chemically biotinylated antibody, PE-streptavidin, Lineweaver-Burk plot
[3] = molecular target: T1, mesothelin as expressed on the plasma membrane of human cells (HeLa, OVCAR-3, SK-OV-3, A1847) (human, UniProt Q13421 296-598); assay: flow cytometry on Hela cells, chemically biotinylated Nb-A1, detection with PE streptavidin
T1 construct: whole, on cells; also called cellularly expressed mesothelin; cell-surface mesothelin
Method: (§1) FIG. 4: Affinity determination of nanobodies for mesothelin as expressed on the plasma membrane of cells. Hela cells were incubated with serial dilutions of in vitro biotinylated anti-mesothelin Nb-A1 (A), Nb-C6 (B) or commercial mAb K1 antibody (•; (C)). Bound antibodies were detected by flow cytometry using PE-conjugated streptavidin. Insets are Lineweaver-Burk plots used to determine the dissociation constant. Error bars represent the standard deviation of experiments performed in triplicate.
(§2) The affinity of Nb-A1 and Nb-C6 for cellularly expressed mesothelin was determined by flow cytometry using HeLa cells for the antigen as described previously; Even-Desrumeaux et al., Mol Biosyst 8(2012), 2385-2394. Briefly, binding to HeLa cells was detected using flow cytometry after incubation with various concentrations of biotinylated nanobodies followed by PE-labeled streptavidin. Apparent KD values were determined by the equation KD=a*Fₘₐₓ in which (a) is the regression line and Fₘₐₓ is the maximum of fluorescence.

[4] = molecular target: T1, mesothelin as expressed on the plasma …; assay: flow cytometry on HeLa cells, chemically biotinylated nanobody, PE-streptavidin, Lineweaver-Burk plot
Method: as §1, §2

mesothelin as expressed on the plasma membrane of human cells (HeLa, OVCAR-3, SK-OV-3, A1847) (human), sequence (Q13421 other isoform, or with tags, fused parts or gaps limits assumed): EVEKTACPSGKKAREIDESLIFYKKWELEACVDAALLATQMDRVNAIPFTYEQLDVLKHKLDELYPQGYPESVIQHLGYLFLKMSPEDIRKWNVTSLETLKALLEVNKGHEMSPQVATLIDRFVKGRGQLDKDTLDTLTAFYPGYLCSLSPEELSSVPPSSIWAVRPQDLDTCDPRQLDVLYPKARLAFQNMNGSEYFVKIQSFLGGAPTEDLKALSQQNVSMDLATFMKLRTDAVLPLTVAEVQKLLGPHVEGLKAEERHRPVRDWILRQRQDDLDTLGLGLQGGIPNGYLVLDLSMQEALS
T1 sequence (Q13421 other isoform, or with tags, fused parts or gaps limits assumed): as above

EC50 (read off the curve) [1]: 2 nM
Kd [2]: 2 nM
Molecule: anti-mesothelin mouse monoclonal antibody K1 (Santa Cruz Biotechnology)

EC50 (read off the curve) [3]: ~20 nM
Kd [4]: ~15 nM
B1: Nb-A1 (nanobody A1, comprising amino acid sequence SEQ ID NO:1) (VHH)
VHH: QVQLVQSGGGLVHPGGSLRLSCAASGIDLSLYRMRWYRQAPGKERDLVALITDDGTSYYEDSVKGRFTITRDNPSNKVFLQMNSLKPEDTAVYYCNAETPLSPVNYWGQGTQVTVS
notes: Llama VHH made in the periplasm of E. coli with a C-terminal hexahistidine tag; For the KD measurement it was chemically biotinylated (NHS-PEO4-biotin); not shown: C-terminal hexahistidine tag, named in words only
